Laboratory results taken from the supplement of paper PMC7125110.
± gives the standard error. For some assays here: Fewer inactive variants are shown than the library holds.

B1: glmS ribozyme (parent)
chain: AUAAAAGCGCCAGAACUACAGAAAUGUAGUUGACGAGGAGGAGGUUUAUCGAAUUUUCGGCGGAUGCCUCCAAA

Legend:
Details in all cases: with glucosamine-6-phosphate
glucosamine-6-phosphate [1] = variants of: B1; experiment: kcat; higher = faster cleavage; RNA array
Outline: (§1)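 Tiles of sequenced MiSeq chips were imaged over ~14 h at 37 °C. On them, barcoded ribozyme variants had been transcribed in situ by E. coli RNA polymerase and were tracked via a hybridised Cy3 probe while glucosamine-6-phosphate (40 μM to 10 mM) in HEPES/KCl/Mg(OAc)2 buffer flowed in. Per-tile medians, normalised to baseline and to non-cleaving reference variants, were fit to one- or two-exponential decays for kobs, and weighted Michaelis–Menten fits gave kcat and KM.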

glucosamine-6-phosphate [2] = variants of: B1; experiment: self-cleavage kobs at 160 uM GlcN6P; higher = faster cleavage; RNA array
Outline: as §1

glucosamine-6-phosphate [3] = variants of: B1; experiment: self-cleavage kobs at 2500 uM GlcN6P; higher = faster cleavage; RNA array
Outline: as §1

glucosamine-6-phosphate [4] = variants of: B1; experiment: self-cleavage kobs at 40 uM GlcN6P; higher = faster cleavage; RNA array
Outline: as §1

glucosamine-6-phosphate [5] = variants of: B1; experiment: self-cleavage kobs at 640 uM GlcN6P; higher = faster cleavage; RNA array
Outline: as §1

glucosamine-6-phosphate [6] = variants of: B1; experiment: self-cleavage kobs at 10000 uM GlcN6P; higher = faster cleavage; RNA array
Outline: as §1

glucosamine-6-phosphate [7] = variants of: B1; experiment: KM; higher = weaker cofactor use; RNA array
Outline: as §1

With AUAAAAGCGCCAGAACUACAGAAAUGUAGUUGACGAGGAGGAGGUUUAUGGAACUUUCGGCGGAUGCCUCCAAA the kcat (glucosamine-6-phosphate [1]) was 5.48e-05 ± 1.1e-05 s⁻¹, the “self-cleavage kobs at 160 uM GlcN6P” value (glucosamine-6-phosphate [2]) was 5.92e-05 ± 2.5e-05 s⁻¹ and the “self-cleavage kobs at 2500 uM GlcN6P” value (glucosamine-6-phosphate [3]) was 5.87e-05 ± 1.8e-05 s⁻¹.

For AUAAAAGCGCCAGAACUACAGAAAUGUAGUUGACGAGGAGGAGGUUUAUGGAAUUAUCGGCGGAUGCCUCCAAA, the kcat (glucosamine-6-phosphate [1]) was 3e-05 ± 4.9e-06 s⁻¹ and the “self-cleavage kobs at 2500 uM GlcN6P” value (glucosamine-6-phosphate [3]) was 4.14e-05 ± 1.9e-05 s⁻¹.

In the case of AUAAAAGCGCCAGAACUACAGAAAUGUAGUUGACGAGGAGGAGGUUUAUGGAAUUUUAGGCCCAUGCCUACAAA, the kcat (glucosamine-6-phosphate [1]) is reported as 0.000121 ± 3.1e-05 s⁻¹, the “self-cleavage kobs at 40 uM GlcN6P” value (glucosamine-6-phosphate [4]) is reported as 4.49e-05 ± 1.7e-05 s⁻¹ and the “self-cleavage kobs at 160 uM GlcN6P” value (glucosamine-6-phosphate [2]) is reported as 0.000204 ± 4.8e-05 s⁻¹. The “self-cleavage kobs at 640 uM GlcN6P” value (glucosamine-6-phosphate [5]) was 0.000166 ± 4.1e-05 s⁻¹, the “self-cleavage kobs at 2500 uM GlcN6P” value (glucosamine-6-phosphate [3]) was 0.000239 ± 5.5e-05 s⁻¹ and the “self-cleavage kobs at 10000 uM GlcN6P” value (glucosamine-6-phosphate [6]) was 9.95e-05 ± 1.6e-05 s⁻¹.

For AUAAAAGCGCCAGAACUACAGAAAUGUAGUUGACGAGGAGGAGGUUUAUGGAAUUUUCGGCGGAUACCUCCAAA, the kcat (glucosamine-6-phosphate [1]) was 4.08e-05 ± 1e-05 s⁻¹ and the “self-cleavage kobs at 160 uM GlcN6P” value (glucosamine-6-phosphate [2]) was 5.66e-05 ± 2.2e-05 s⁻¹.

For AUAAAAGCGCCAGAACUACAGAAAUGUAGUUGACGAGGAGGAGGUUUAUGGAGUUUUCGGCGGAUGCCUCCAAA, the kcat (glucosamine-6-phosphate [1]) was 4.4e-05 ± 2.2e-05 s⁻¹ and the “self-cleavage kobs at 2500 uM GlcN6P” value (glucosamine-6-phosphate [3]) was 3.81e-05 ± 1.5e-05 s⁻¹.

With AUAAAAGCGCCAGAACUACAGAAAUGUAGUUGACGAGGAGGAGGUUUAUGGAAUUUUCGCCGGAUGCCACCAAA the kcat (glucosamine-6-phosphate [1]) was 8.12e-05 ± 2.6e-05 s⁻¹, the “self-cleavage kobs at 160 uM GlcN6P” value (glucosamine-6-phosphate [2]) was 0.00016 ± 4.5e-05 s⁻¹ and the “self-cleavage kobs at 640 uM GlcN6P” value (glucosamine-6-phosphate [5]) was 0.00011 ± 2.1e-05 s⁻¹. For the same variant, the “self-cleavage kobs at 2500 uM GlcN6P” value (glucosamine-6-phosphate [3]) was 0.000146 ± 3.1e-05 s⁻¹ and the “self-cleavage kobs at 10000 uM GlcN6P” value (glucosamine-6-phosphate [6]) was 4.94e-05 ± 1.4e-05 s⁻¹.

Variant AUAAAAGCGCCAGAACUACAGAAAUGUAGUUGACGAGGAGGAGGUUUAUUGGAUUUUCGGCGGAUGCCUCCAAA has a kcat (glucosamine-6-phosphate [1]) of 1.11e-05 ± 2.8e-06 s⁻¹.

For AUAAAAGCGCCAGAACUACAGAAAUGUAGUUGACGAGGAGGAGGUUUAUGGAAUUUUCGGCGGAUGUCUCCAAA, the kcat (glucosamine-6-phosphate [1]) was 0.000113 ± 9.9e-06 s⁻¹, the “self-cleavage kobs at 40 uM GlcN6P” value (glucosamine-6-phosphate [4]) was 9.57e-05 ± 8e-06 s⁻¹ and the “self-cleavage kobs at 160 uM GlcN6P” value (glucosamine-6-phosphate [2]) was 0.000129 ± 1.6e-05 s⁻¹. The “self-cleavage kobs at 640 uM GlcN6P” value (glucosamine-6-phosphate [5]) was 0.000141 ± 1.7e-05 s⁻¹, the “self-cleavage kobs at 2500 uM GlcN6P” value (glucosamine-6-phosphate [3]) was 0.000126 ± 1.5e-05 s⁻¹ and the “self-cleavage kobs at 10000 uM GlcN6P” value (glucosamine-6-phosphate [6]) was 0.000101 ± 7.4e-06 s⁻¹.

AUAAAAGCGCCAGAACUACAGAAAUGUAGUUGACGAGGAGGAGGUUUAUGGAAUUUUCGGCAGAUGCCUCCAAA was tested, and the kcat (glucosamine-6-phosphate [1]) was 0.000121 ± 5.5e-05 s⁻¹, the “self-cleavage kobs at 40 uM GlcN6P” value (glucosamine-6-phosphate [4]) was 3.58e-05 ± 1.1e-05 s⁻¹ and the “self-cleavage kobs at 160 uM GlcN6P” value (glucosamine-6-phosphate [2]) was 0.000128 ± 2.4e-05 s⁻¹. The “self-cleavage kobs at 2500 uM GlcN6P” value (glucosamine-6-phosphate [3]) was 0.000168 ± 3.3e-05 s⁻¹.

With AUAAAAGCGCCAGAACUACAGAAAUGUAGUUGACGAGGAGGAGGUUUAUGGAAUUUUCGACGGAUGCCUCCAAA the kcat (glucosamine-6-phosphate [1]) was 4.61e-05 ± 2.1e-05 s⁻¹, the “self-cleavage kobs at 160 uM GlcN6P” value (glucosamine-6-phosphate [2]) was 7.6e-05 ± 1.9e-05 s⁻¹ and the “self-cleavage kobs at 2500 uM GlcN6P” value (glucosamine-6-phosphate [3]) was 4.5e-05 ± 1.8e-05 s⁻¹.

AUAAAAGCGCCAGAACUACAGAAAUGUAGUUGACGAGGAGGAGGUUUAUUGAUUUUUCGGCGGAUGCCUCCAAA was tested, and the kcat (glucosamine-6-phosphate [1]) was 5.88e-05 ± 7.9e-06 s⁻¹, the KM (glucosamine-6-phosphate [7]) was 5.39 ± 2 mM and the “self-cleavage kobs at 40 uM GlcN6P” value (glucosamine-6-phosphate [4]) was under 1e-05 s⁻¹. For the same variant, the “self-cleavage kobs at 10000 uM GlcN6P” value (glucosamine-6-phosphate [6]) was 3.82e-05 ± 8.6e-06 s⁻¹.
